One assay has as its target Protein S (Homo sapiens) (UniProt P07225). The following applies: cited from earlier work.
Assay [1] concerns the target PRP6-HO7 (Proline-rich Protein domain CCP6 heptamerized) (human) (UniProt P04003). The experiment in a line: SDS-PAGE under reducing and non-reducing conditions; 4-12% gradient SDS-PAGE of the purified proteins, Coomassie (Blue Safe) staining and Western blot with anti-6xHis and anti-C4BP α-chain antibodies; reduced against non-reduced size. In general terms: Immunoblotting shows a protein as a band on a membrane.

Sequence of UniProt P07225 (P07225 42-676): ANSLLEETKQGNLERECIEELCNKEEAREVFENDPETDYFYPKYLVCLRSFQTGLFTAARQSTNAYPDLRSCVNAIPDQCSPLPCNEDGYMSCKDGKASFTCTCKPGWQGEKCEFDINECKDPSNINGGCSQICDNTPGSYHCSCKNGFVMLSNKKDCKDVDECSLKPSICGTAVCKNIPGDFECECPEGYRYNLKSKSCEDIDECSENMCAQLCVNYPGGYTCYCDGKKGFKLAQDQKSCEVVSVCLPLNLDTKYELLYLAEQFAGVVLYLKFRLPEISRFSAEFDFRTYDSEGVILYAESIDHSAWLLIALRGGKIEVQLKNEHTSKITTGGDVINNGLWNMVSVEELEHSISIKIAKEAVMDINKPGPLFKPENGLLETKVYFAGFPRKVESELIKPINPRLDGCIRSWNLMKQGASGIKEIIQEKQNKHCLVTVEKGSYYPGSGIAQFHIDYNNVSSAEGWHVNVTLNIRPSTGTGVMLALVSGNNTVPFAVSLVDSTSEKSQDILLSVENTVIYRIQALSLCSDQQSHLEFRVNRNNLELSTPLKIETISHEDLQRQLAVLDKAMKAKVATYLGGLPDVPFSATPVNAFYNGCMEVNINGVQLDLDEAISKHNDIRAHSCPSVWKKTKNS

As to “C4BP beta-chain CCP1 (from UniProt P20851)”, the Kd – broadly, the free concentration of one partner at which half of the binding sites on the other are occupied at equilibrium, for simple one-to-one binding – with Protein S (Homo sapiens) was 0.1 nM. “PRP6-HO7 (Proline-rich Protein domain CCP6 heptamerized) (from UniProt P04003 540-597)”: the stoichiometry N – broadly, a count of units in the complex or per binding partner – in assay [1] worked out at 7.

The values above are taken from publication PMC9084231.
